Laboratory results: patent US5756291, “Aptamers specific for biomolecules and methods of making” (Gilead Sciences, Inc.)

B1: pentynyl-dU clone 24 60-mer (ssDNA)
DNA: TAGAATACTCAAGCTTCGACGGTATATAGTATAGTATTGGCAGTTTGGATCCCCGGGTAC
modifications: X 5-pentynyl-dU; T in 3' constant region also 5-pentynyl-dU; T in 5' constant region unmodified [23,25,27,30,32,35,37,38 (X = 5-pentynyl-dU); 44,45,46,50,58 (3' constant region T = 5-pentynyl-dU)]

What was measured:
[1] = target: T1, thrombin (alpha, Factor IIa) (Homo sapiens, UniProt P00734;P00734 P00734:328-363,P00734:364-622); test: filter
[2] = target: T1, thrombin (alpha, Factor IIa); test: inhibition
serum albumin = serum albumin (Homo sapiens, UniProt P02768 P02768:25-609); test: EMSA; 500 nM protein, 4 C
trypsin = trypsin (UniProt P00760 P00760:24-246); test: EMSA; 500 nM protein, 4 C
chymotrypsin = chymotrypsin (UniProt P00766;P00766;P00766 P00766:1-13,P00766:16-146,P00766:149-245); test: EMSA; 500 nM protein, 4 C
prothrombin = prothrombin (Homo sapiens, UniProt P00734 P00734:44-622); test: EMSA; 500 nM protein, 4 C
Factor X = Factor X (UniProt P00742;P00742 P00742:41-179,P00742:183-488); test: EMSA; 500 nM protein, 4 C; conditions: tags: Haematologic Technologies HCXA-0060
[3] = target: T1, thrombin (alpha, Factor IIa); test: inhibition; 100 nM; no DNA 23 s

Sequence of trypsin (P00760 24-246, one chain of several): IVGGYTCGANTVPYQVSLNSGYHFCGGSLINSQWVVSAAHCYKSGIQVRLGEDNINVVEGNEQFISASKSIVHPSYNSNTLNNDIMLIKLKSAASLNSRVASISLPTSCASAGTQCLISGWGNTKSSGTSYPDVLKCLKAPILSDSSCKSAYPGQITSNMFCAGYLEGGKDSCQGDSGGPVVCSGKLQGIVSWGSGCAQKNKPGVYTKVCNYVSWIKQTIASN
Sequence of serum albumin (P02768 25-609, one chain of several): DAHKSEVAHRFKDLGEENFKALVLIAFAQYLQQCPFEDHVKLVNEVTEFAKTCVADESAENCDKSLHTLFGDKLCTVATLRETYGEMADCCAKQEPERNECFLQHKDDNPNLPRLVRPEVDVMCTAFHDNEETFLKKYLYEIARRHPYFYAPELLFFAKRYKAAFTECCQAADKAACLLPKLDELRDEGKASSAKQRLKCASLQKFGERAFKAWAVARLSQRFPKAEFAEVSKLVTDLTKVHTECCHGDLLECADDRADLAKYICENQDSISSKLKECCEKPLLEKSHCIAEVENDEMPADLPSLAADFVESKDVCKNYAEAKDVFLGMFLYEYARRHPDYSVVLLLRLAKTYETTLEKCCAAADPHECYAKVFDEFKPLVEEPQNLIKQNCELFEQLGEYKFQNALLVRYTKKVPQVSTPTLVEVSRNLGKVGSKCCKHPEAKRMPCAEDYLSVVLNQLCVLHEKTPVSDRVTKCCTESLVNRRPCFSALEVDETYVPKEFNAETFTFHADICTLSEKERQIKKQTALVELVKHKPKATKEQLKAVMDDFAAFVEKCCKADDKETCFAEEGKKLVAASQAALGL
Sequence of Factor X (P00742 41-179, chain 1 of 2): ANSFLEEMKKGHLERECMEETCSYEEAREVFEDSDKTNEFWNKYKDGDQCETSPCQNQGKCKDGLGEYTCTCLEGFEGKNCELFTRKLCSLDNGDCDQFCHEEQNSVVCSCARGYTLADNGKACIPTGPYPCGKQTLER
Sequence of Factor X (P00742 183-488, chain 2 of 2): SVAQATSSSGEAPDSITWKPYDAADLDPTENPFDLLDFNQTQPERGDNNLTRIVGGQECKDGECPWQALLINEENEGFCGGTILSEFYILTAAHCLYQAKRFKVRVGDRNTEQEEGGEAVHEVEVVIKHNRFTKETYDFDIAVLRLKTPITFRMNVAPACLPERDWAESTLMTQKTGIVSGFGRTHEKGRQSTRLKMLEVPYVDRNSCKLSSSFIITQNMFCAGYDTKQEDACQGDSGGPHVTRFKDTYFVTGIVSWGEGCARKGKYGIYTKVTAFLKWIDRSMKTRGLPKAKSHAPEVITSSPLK

Row | Binder | Ki [2] [nM] | activity [3] [s clot time] | also measured
1 | GGTTGGGCTGGTTGGGTTGGG (ssDNA) [21-mer thrombin aptamer] | ~100 | – | Kd [1]: ~350 nM
2 | B1 | – | – | Kd [1]: 400 nM; binding result (serum albumin): no binding; binding result (trypsin): no binding; binding result (chymotrypsin): no binding; binding result (prothrombin): no binding; binding result (Factor X): no binding
3 | GGTTGGUGUGGTTGG (ssDNA, dU at 7 and 9) [15-mer dU7 dU9] | 15 | – | –
4 | GGUTGGTGTGGUTGG (ssDNA, dU at 3 and 12) [15-mer dU3 dU12] | 80 | – | –
5 | GGTTGGTGTGGTUGG (ssDNA, U13 is 5-(1-pentynyl)-2'-deoxyuridine) [15-mer pentynyl-U13] | 20 | – | –
6 | GGTTGGTGTGGTTGG (ssDNA, Z 5-(1-propynyl)-2'-deoxyuridine [12 (Z = 5-(1-propynyl)-2'-deoxyuridine)]) [15-mer propynyl-dU 12] | – | 129 | –
7 | GGTTGGTGTGGTTGG (ssDNA, Z 5-(1-propynyl)-2'-deoxyuridine [9 (Z = 5-(1-propynyl)-2'-deoxyuridine)]) [15-mer propynyl-dU 9] | – | 120 | –
8 | GGTTGGTGTGGTTGG (ssDNA, Z 5-(1-propynyl)-2'-deoxyuridine [7 (Z = 5-(1-propynyl)-2'-deoxyuridine)]) [15-mer propynyl-dU 7] | – | 118 | –
9 | GGTTGGTGTGGTTGG (ssDNA, Z 5-(1-propynyl)-2'-deoxyuridine [4 (Z = 5-(1-propynyl)-2'-deoxyuridine)]) [15-mer propynyl-dU 4] | – | 187 | –
10 | GGTTGGTGTGGTTGG (ssDNA, Z 5-(1-propynyl)-2'-deoxyuridine [3 (Z = 5-(1-propynyl)-2'-deoxyuridine)]) [15-mer propynyl-dU 3] | – | 138 | –
